Measurements taken from patent US20100260668A1 (published 2010).

B1: DVD552 (bispecific antibody, human IgG1, kappa)
heavy: not shown
light: DIQMTQSPSSLSASVGDRVTITCRASQDVSTAVAWYQQKPGKAPKLLIYSASFLYSGVPSRFSGSGSGTDFTLTISSLQPEDFATYYCQQSYTTPPTFGQGTKVEIKRTVAAPSVFIFPPAIQMTQSSSSFSVSLGDRVTITCKASEDIYNRFAWYQQKPGNAPRLLISGAASLEAGVPSRFSGSGSGQDYTLSITSLQTEDVATYYCQQYWSTPWTFGGGTKLEIKRTVAAPSVFIFPPSDEQLKSGTASVVCLLNNFYPREAKVQWKVDNALQSGNSQESVTEQDSKDSTYSLSSTLTLSKADYEKHKVYACEVTHQGLSSPVTKSFNRGEC
notes: HC linker long, LC linker long; also called DVD-Ig DVD552
B2: DVD569 (bispecific antibody, human IgG1, kappa)
heavy: not shown
light: AIQMTQSSSSFSVSLGDRVTITCKASEDIYNRFAWYQQKPGNAPRLLISGAASLEAGVPSRFSGSGSGQDYTLSITSLQTEDVATYYCQQYWSTPWTFGGGTKLEIKRTVAAPSVFIFPPDIQMTQSPSSLSASVGDRVTITCRASQVIRRSLAWYQQKPGKAPKLLIYAASNLASGVPSRFSGSGSGTDFTLTISSLQPEDFATYYCQQSNTSPLTFGQGTKVEIKRTVAAPSVFIFPPSDEQLKSGTASVVCLLNNFYPREAKVQWKVDNALQSGNSQESVTEQDSKDSTYSLSSTLTLSKADYEKHKVYACEVTHQGLSSPVTKSFNRGEC
notes: outer AB074 (PlGF), inner AB071 (VEGF); HC linker short, LC linker long; also called DVD-Ig DVD569
B3: DVD573 (bispecific antibody, human IgG1, kappa)
heavy: not shown
light: DIVLTQSPDSLAVSLGERVTMNCKSSQSLLNSGMRKSFLAWYQQKPGQSPKLLIYWASTRESGVPDRFTGSGSGTDFTLTISSVQAEDVAVYYCKQSYHLFTFGSGTKLEIKRTVAAPDIQMTQSPSSLSASVGDRVTITCRASQDVSTAVAWYQQKPGKAPKLLIYSASFLYSGVPSRFSGSGSGTDFTLTISSLQPEDFATYYCQQSYTTPPTFGQGTKVEIKRTVAAPSVFIFPPSDEQLKSGTASVVCLLNNFYPREAKVQWKVDNALQSGNSQESVTEQDSKDSTYSLSSTLTLSKADYEKHKVYACEVTHQGLSSPVTKSFNRGEC
notes: HC linker short, LC linker short; also called DVD-Ig DVD573
B4: DVD546 (bispecific antibody, human IgG1, kappa)
heavy: not shown
light: DIQMTQSPSSLSASVGDRVTITCRASQVIRRSLAWYQQKPGKAPKLLIYAASNLASGVPSRFSGSGSGTDFTLTISSLQPEDFATYYCQQSNTSPLTFGQGTKVEIKRTVAAPAIQMTQSSSSFSVSLGDRVTITCKASEDIYNRFAWYQQKPGNAPRLLISGAASLEAGVPSRFSGSGSGQDYTLSITSLQTEDVATYYCQQYWSTPWTFGGGTKLEIKRTVAAPSVFIFPPSDEQLKSGTASVVCLLNNFYPREAKVQWKVDNALQSGNSQESVTEQDSKDSTYSLSSTLTLSKADYEKHKVYACEVTHQGLSSPVTKSFNRGEC
notes: outer AB071 (VEGF), inner AB074 (PlGF); HC linker short, LC linker short; also called DVD-Ig DVD546
B5: DVD562 (bispecific antibody, human IgG1, kappa)
heavy: not shown
light: B4 light
notes: outer AB071 (VEGF), inner AB074 (PlGF); HC linker long, LC linker short; also called DVD-Ig DVD562
B6: DVD575 (bispecific antibody, human IgG1, kappa)
heavy: not shown
light: DIVLTQSPDSLAVSLGERVTMNCKSSQSLLNSGMRKSFLAWYQQKPGQSPKLLIYWASTRESGVPDRFTGSGSGTDFTLTISSVQAEDVAVYYCKQSYHLFTFGSGTKLEIKRTVAAPDIQMTQSPSSLSASVGDRVTITCRASQVIRRSLAWYQQKPGKAPKLLIYAASNLASGVPSRFSGSGSGTDFTLTISSLQPEDFATYYCQQSNTSPLTFGQGTKVEIKRTVAAPSVFIFPPSDEQLKSGTASVVCLLNNFYPREAKVQWKVDNALQSGNSQESVTEQDSKDSTYSLSSTLTLSKADYEKHKVYACEVTHQGLSSPVTKSFNRGEC
notes: outer AB047 (PlGF), inner AB071 (VEGF); HC linker short, LC linker short; also called DVD-Ig DVD575
B7: DVD554 (bispecific antibody, human IgG1, kappa)
heavy: not shown
light: DIQMTQSPSSLSASVGDRVTITCRASQVIRRSLAWYQQKPGKAPKLLIYAASNLASGVPSRFSGSGSGTDFTLTISSLQPEDFATYYCQQSNTSPLTFGQGTKVEIKRTVAAPSVFIFPPAIQMTQSSSSFSVSLGDRVTITCKASEDIYNRFAWYQQKPGNAPRLLISGAASLEAGVPSRFSGSGSGQDYTLSITSLQTEDVATYYCQQYWSTPWTFGGGTKLEIKRTVAAPSVFIFPPSDEQLKSGTASVVCLLNNFYPREAKVQWKVDNALQSGNSQESVTEQDSKDSTYSLSSTLTLSKADYEKHKVYACEVTHQGLSSPVTKSFNRGEC
notes: outer AB071 (VEGF), inner AB074 (PlGF); HC linker long, LC linker long; also called DVD-Ig DVD554
B8: DVD542 (bispecific antibody, human IgG1, kappa)
heavy: not shown
light: DIQMTQSPSSLSASVGDRVTITCSASQDISNYLNWYQQKPGKAPKVLIYFTSSLHSGVPSRFSGSGSGTDFTLTISSLQPEDFATYYCQQYSTVPWTFGQGTKVEIKRTVAAPAIQMTQSSSSFSVSLGDRVTITCKASEDIYNRFAWYQQKPGNAPRLLISGAASLEAGVPSRFSGSGSGQDYTLSITSLQTEDVATYYCQQYWSTPWTFGGGTKLEIKRTVAAPSVFIFPPSDEQLKSGTASVVCLLNNFYPREAKVQWKVDNALQSGNSQESVTEQDSKDSTYSLSSTLTLSKADYEKHKVYACEVTHQGLSSPVTKSFNRGEC
notes: HC linker short, LC linker short; also called DVD-Ig DVD542
B9: DVD558 (bispecific antibody, human IgG1, kappa)
heavy: not shown
light: B8 light
notes: HC linker long, LC linker short; also called DVD-Ig DVD558
B10: DVD544 (bispecific antibody, human IgG1, kappa)
heavy: not shown
light: DIQMTQSPSSLSASVGDRVTITCRASQDVSTAVAWYQQKPGKAPKLLIYSASFLYSGVPSRFSGSGSGTDFTLTISSLQPEDFATYYCQQSYTTPPTFGQGTKVEIKRTVAAPAIQMTQSSSSFSVSLGDRVTITCKASEDIYNRFAWYQQKPGNAPRLLISGAASLEAGVPSRFSGSGSGQDYTLSITSLQTEDVATYYCQQYWSTPWTFGGGTKLEIKRTVAAPSVFIFPPSDEQLKSGTASVVCLLNNFYPREAKVQWKVDNALQSGNSQESVTEQDSKDSTYSLSSTLTLSKADYEKHKVYACEVTHQGLSSPVTKSFNRGEC
notes: HC linker short, LC linker short; also called DVD-Ig DVD544
B11: DVD560 (bispecific antibody, human IgG1, kappa)
heavy: not shown
light: B10 light
notes: HC linker long, LC linker short; also called DVD-Ig DVD560

Tests used:
[1] = target: T1, PlGF (UniProt P49763-2 21-149, limits assumed); assay: direct bind ELISA, C-terminal VD
T1 construct: bought antigen coated on the ELISA plate; also called Placental GF
T1 sequence (looked up): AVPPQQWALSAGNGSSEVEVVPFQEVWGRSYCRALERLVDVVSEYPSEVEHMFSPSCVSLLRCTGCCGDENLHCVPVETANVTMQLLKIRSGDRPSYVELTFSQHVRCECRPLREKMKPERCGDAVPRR
Description: Enzyme Linked Immunosorbent Assays to screen for antibodies that bind a desired target antigen were performed as follows. […] Plates were washed four times with PBS containing 0.02% Tween 20. Plates were blocked by the addition of 300 μL/well blocking solution (non-fat dry milk powder, various retail suppliers, diluted to 2% in PBS) for ½ hour at room temperature. Plates were washed four times after blocking with PBS containing 0.02% Tween 20.
Plates were washed 4 times with PBS containing 0.02% Tween 20.

[2] = target: T2, VEGF (UniProt P15692 27-191, limits assumed); assay: direct bind ELISA, N-terminal VD
T2 construct: bought antigen coated on the ELISA plate

[3] = target: T1, PlGF; assay: direct bind ELISA, N-terminal VD

T2 sequence (P15692 other isoform, or with tags, fused parts or gaps limits assumed): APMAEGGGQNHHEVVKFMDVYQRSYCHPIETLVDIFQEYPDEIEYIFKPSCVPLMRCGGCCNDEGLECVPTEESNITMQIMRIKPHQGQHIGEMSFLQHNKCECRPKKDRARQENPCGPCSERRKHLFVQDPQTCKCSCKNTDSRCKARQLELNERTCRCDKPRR

Binder	EC50 [1] [nM]	EC50 [2] [nM]	EC50 [3] [nM]
B1	8.54	314	
B2			88.5
B3			0.14
B4	7.03	25.8	
B5	1.12	17.7	
B6			0.14
B7	0.45	15.2	
B8	13	0.8	
B9	3.37	1.96	
B10	13.8	2.35	
B11	2.53	3.12	
